The values below come from article PMC11030525.

The target in test [1] is AHA1, mouse (UniProt Q8BK64). Briefly: mCherry antibody affinity purification (IP) with SILAC LC-MS. The conditions noted are these: E14 ESCs; AA mutant in light media, EE mutant in heavy media; representative spectrum; mCherry EE:AA = 1.08 in the same panel.
For test [2], the target named is FKBP4, mouse (UniProt P30416). The description is as above. The settings on record: E14 ESCs; AA mutant in light media, EE mutant in heavy media; representative spectrum; mCherry EE:AA = 1.08 in the same panel.
Chain of FKBP4, mouse (P30416 whole entry): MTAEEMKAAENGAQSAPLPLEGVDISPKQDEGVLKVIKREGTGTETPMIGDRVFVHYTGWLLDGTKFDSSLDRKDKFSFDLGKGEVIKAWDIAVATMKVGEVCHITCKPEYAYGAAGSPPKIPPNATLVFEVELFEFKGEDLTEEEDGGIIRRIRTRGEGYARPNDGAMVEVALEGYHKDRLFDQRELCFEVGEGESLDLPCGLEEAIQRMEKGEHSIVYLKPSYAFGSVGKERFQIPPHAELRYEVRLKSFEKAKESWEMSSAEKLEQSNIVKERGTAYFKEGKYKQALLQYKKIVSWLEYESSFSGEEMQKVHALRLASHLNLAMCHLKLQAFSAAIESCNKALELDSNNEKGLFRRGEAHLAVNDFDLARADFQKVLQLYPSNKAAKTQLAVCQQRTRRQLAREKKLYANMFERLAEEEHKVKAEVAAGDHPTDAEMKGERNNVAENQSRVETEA

Chain of mCherry-HSP90β-Wild type, P08238 S226E; S255E (P08238 whole entry S226E/S255E): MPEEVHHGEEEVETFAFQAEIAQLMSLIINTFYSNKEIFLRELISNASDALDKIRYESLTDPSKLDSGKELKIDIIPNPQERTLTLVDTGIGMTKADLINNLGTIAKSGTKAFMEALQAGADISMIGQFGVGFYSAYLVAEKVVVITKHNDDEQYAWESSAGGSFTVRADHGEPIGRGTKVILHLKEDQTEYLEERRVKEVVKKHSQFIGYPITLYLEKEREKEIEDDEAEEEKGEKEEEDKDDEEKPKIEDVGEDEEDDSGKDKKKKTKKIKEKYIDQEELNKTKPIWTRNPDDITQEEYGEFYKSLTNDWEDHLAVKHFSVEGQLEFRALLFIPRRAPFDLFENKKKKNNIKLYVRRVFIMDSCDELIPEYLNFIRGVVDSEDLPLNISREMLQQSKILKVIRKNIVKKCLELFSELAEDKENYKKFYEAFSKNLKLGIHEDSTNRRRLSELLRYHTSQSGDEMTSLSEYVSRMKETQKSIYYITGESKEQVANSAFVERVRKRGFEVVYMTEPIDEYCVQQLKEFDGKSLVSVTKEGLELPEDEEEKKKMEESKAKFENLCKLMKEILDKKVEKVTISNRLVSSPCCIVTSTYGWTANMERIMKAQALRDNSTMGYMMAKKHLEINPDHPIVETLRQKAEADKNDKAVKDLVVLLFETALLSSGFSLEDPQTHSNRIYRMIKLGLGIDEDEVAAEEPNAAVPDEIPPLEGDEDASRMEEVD
Chain of AHA1, mouse (Q8BK64 whole entry): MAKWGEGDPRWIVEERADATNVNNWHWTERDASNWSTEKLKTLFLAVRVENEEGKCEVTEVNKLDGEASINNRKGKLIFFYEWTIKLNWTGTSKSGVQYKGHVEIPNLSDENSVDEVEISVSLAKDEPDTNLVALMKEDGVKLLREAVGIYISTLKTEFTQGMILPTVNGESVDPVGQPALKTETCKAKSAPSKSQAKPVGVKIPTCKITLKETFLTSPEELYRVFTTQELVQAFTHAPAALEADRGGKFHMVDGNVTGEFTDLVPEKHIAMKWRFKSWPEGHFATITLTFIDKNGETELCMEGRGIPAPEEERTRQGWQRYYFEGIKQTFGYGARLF

With “mCherry-HSP90β-Wild type, P08238 S226E; S255E”, the other: SILAC ratio EE:AA in test [1] came to 1.69; in test [2] it was 1.74.
